From the RNAGym collection of RNA variant scans (doi:10.7554/elife.80360)

B1: HDV Ribozyme (parent)
chain: GGCCGGCAUGGUCCCAGCCUCCUCGCUGGCGCCGGCUGGGCAACAUUCCGAGGGGACCGUCCCCUCGGUAAUGGCGAAUGGGACCCA

Variants of: B1
Experiment: self-cleavage, relative activity (ratio to wild type); higher = more cleavage; co-transcriptional
Variant GGCCGGCAUGGUCCCAGCCUCCUCGCUGGCGCCGGCUGGGCAACAUUCCGAUGGGACCGUCCCCUCGGGAAUGGCGAAUGGGACCCA has a self-cleavage of 1.19.
GGCCGGCAUGGUCCCAGCCUCCUCGCUGGCGCCGGCUGGGCAACAUUCCGAUGGGACCGUCCCCACGGUAAUGGCGAAUGGGACCCA gave a self-cleavage of 0.82.
GGCCGGCAUGGUCCCAGCCUCCUCGCUGGCGCCGGCUGGGCAACAUUCCGAGAGGACCGUCCCCUCGGUAUUGGCGAAUGGGACCCA gave a self-cleavage of 0.904.
With GGCCGGCAUGGUCCCAGCCUCCUCGCUGGCGCCGGCUGGGCAACAUUCCGAGAGGACCGUCCCCUCGGUAAUGGCGAAUUGGACCCA the self-cleavage was 0.234.
GGCCGGCAUGGUCCCAGCCUCCUCGCUGGCGCCGGCUGGGCAACAUUCCGAGAGGAACGUCCCCUCGGUAAUGGCGAAUGGGACCCA showed a self-cleavage of 0.866.
GGCCGGCAUGGUCCCAGCCUCCUCGCUGGCGCCGGCUGGGCAACAUUCCGAGAGGAUCGUCCCCUCGGUAAUGGCGAAUGGGACCCA showed a self-cleavage of 1.06.
With GGCCGGCAUGGUCCCAGCCUCCUCGCUGGCGCCGGCUGGGCAACAUUCCGAUGGGACCGUCCCCUCGGUAAUGGCGAAUGGAACCCA the self-cleavage was 0.277.
With GGCCGGCAUGGUCCCAGCCUCCUCGCUGGCGCCGGCUGGGCAACAUUCCGAGCGGACCGUCCCCUCGGUAAUGGCGCAUGGGACCCA the self-cleavage was 0.443.
GGCCGGCAUGGUCCCAGCCUCCUCGCUGGCGCCGGCUGGGCAACAUUCCGAGAGGACCGUCCCCUCGGUAACGGCGAAUGGGACCCA gave a self-cleavage of 0.731.
For GGCCGGCAUGGUCCCAGCCUCCUCGCUGGCGCCGGCUGGGCAACAUUCCGAGAGGACCGUCCCCUCGGUAAGGGCGAAUGGGACCCA, the self-cleavage was 0.429.
For GGCCGGCAUGGUCCCAGCCUCCUCGCUGGCGCCGGCUGGGCAACAUUCCGAGAGGACCGUCCCCUCGGUAAUGGCGAAUGGGACUCA, the self-cleavage was 0.872.
With GGCCGGCAUGGUCCCAGCCUCCUCGCUGGCGCCGGCUGGGCAACAUUCCGAGAGGACCGUCCCCUCGGUAAUGGCGAAUGGGAGCCA the self-cleavage was 0.85.
GGCCGGCAUGGUCCCAGCCUCCUCGCUGGCGCCGGCUGGGCAACAUUCCGAUGGGACCGUCCCCUCGGUAACGGCGAAUGGGACCCA showed a self-cleavage of 0.426.
GGCCGGCAUGGUCCCAGCCUCCUCGCUGGCGCCGGCUGGGCAACAUUCCGAUGGGACCGUCCCCUCGGUAAGGGCGAAUGGGACCCA gave a self-cleavage of 0.396.
For GGCCGGCAUGGUCCCAGCCUCCUCGCUGGCGCCGGCUGGGCAACAUUCCGAGCGGACCGUCCCCUCGGUAAUGGCGAAUGGGACCCA, the self-cleavage was 0.97.
Variant GGCCGGCAUGGUCCCAGCCUCCUCGCUGGCGCCGGCUGGGCAACAUUCCGAGAGGACCGUCCCCUCGGUAAUGGCGAAUGGGACCCA has a self-cleavage of 1.
With GGCCGGCAUGGUCCCAGCCUCCUCGCUGGCGCCGGCUGGGCAACAUUCCGAUGGGACCGUCCCCUCGGUAAUGGCUAAUGGGACCCA the self-cleavage was 1.05.
In the case of GGCCGGCAUGGUCCCAGCCUCCUCGCUGGCGCCGGCUGGGCAACAUUCCGAUGGGACCGUCCCCUCGGUAAUGGCCAAUGGGACCCA, the self-cleavage is reported as 0.921.
For GGCCGGCAUGGUCCCAGCCUCCUCGCUGGCGCCGGCUGGGCAACAUUCCGAGAGGACCGUCCCCUCGGUGAUGGCGAAUGGGACCCA, the self-cleavage was 1.07.
In the case of GGCCGGCAUGGUCCCAGCCUCCUCGCUGGCGCCGGCUGGGCAACAUUCCGAGAGGACCGUCCCCUCGGUAAUGUCGAAUGGGACCCA, the self-cleavage is reported as 0.59.
Work on GGCCGGCAUGGUCCCAGCCUCCUCGCUGGCGCCGGCUGGGCAACAUUCCGAGAGGACCGUCCCCUCGGUAAUGCCGAAUGGGACCCA yielded a self-cleavage of 0.265.
GGCCGGCAUGGUCCCAGCCUCCUCGCUGGCGCCGGCUGGGCAACAUUCCGAGAGGACCGUCCCCUCGGUAAUGGCGCAUGGGACCCA showed a self-cleavage of 0.251.
In the case of GGCCGGCAUGGUCCCAGCCUCCUCGCUGGCGCCGGCUGGGCAACAUUCCGAGAGGACCGUCCCCUCGGUAAUGGCGGAUGGGACCCA, the self-cleavage is reported as 0.916.
For GGCCGGCAUGGUCCCAGCCUCCUCGCUGGCGCCGGCUGGGCAACAUUCCGAGAGGACCUUCCCCUCGGUAAUGGCGAAUGGGACCCA, the self-cleavage was 0.862.
Work on GGCCGGCAUGGUCCCAGCCUCCUCGCUGGCGCCGGCUGGGCAACAUUCCGAGAGGACCCUCCCCUCGGUAAUGGCGAAUGGGACCCA yielded a self-cleavage of 0.872.
Variant GGCCGGCAUGGUCCCAGCCUCCUCGCUGGCGCCGGCUGGGCAACAUUCCGAUGGGACCGCCCCCUCGGUAAUGGCGAAUGGGACCCA has a self-cleavage of 0.961.
With GGCCGGCAUGGUCCCAGCCUCCUCGCUGGCGCCGGCUGGGCAACAUUCCGAGAGGACCGUCCCCUCGGUAAUGGCGAAUGGGACCCG the self-cleavage was 0.995.
GGCCGGCAUGGUCCCAGCCUCCUCGCUGGCGCCGGCUGGGCAACAUUCCGAGCGGACCGUCCCCUCGGUAAUGGCGAGUGGGACCCA showed a self-cleavage of 0.554.
For GGCCGGCAUGGUCCCAGCCUCCUCGCUGGCGCCGGCUGGGCAACAUUCCGAGCGGACCGUCCCCUCGGUAAUGGCGAUUGGGACCCA, the self-cleavage was 0.525.
In the case of GGCCGGCAUGGUCCCAGCCUCCUCGCUGGCGCCGGCUGGGCAACAUUCCGAGAGGACCGUCCCCUCGGUAAUGGCGAUUGGGACCCA, the self-cleavage is reported as 0.277.
In the case of GGCCGGCAUGGUCCCAGCCUCCUCGCUGGCGCCGGCUGGGCAACAUUCCGAGAGGACCGUCCCCUCGGUAAUGGCGAGUGGGACCCA, the self-cleavage is reported as 0.618.
GGCCGGCAUGGUCCCAGCCUCCUCGCUGGCGCCGGCUGGGCAACAUUCCGAGAGGACCGACCCCUCGGUAAUGGCGAAUGGGACCCA gave a self-cleavage of 0.938.
With GGCCGGCAUGGUCCCAGCCUCCUCGCUGGCGCCGGCUGGGCAACAUUCCGAGAGGACCGGCCCCUCGGUAAUGGCGAAUGGGACCCA the self-cleavage was 1.01.
In the case of GGCCGGCAUGGUCCCAGCCUCCUCGCUGGCGCCGGCUGGGCAACAUUCCGAGAGGACCGUUCCCUCGGUAAUGGCGAAUGGGACCCA, the self-cleavage is reported as 0.99.
Variant GGCCGGCAUGGUCCCAGCCUCCUCGCUGGCGCCGGCUGGGCAACAUUCCGAGAGGACCGUACCCUCGGUAAUGGCGAAUGGGACCCA has a self-cleavage of 0.987.
With GGCCGGCAUGGUCCCAGCCUCCUCGCUGGCGCCGGCUGGGCAACAUUCCGAGAGGACCGUCCCCUCGGUAAUGGCGAAUGGGGCCCA the self-cleavage was 0.802.
In the case of GGCCGGCAUGGUCCCAGCCUCCUCGCUGGCGCCGGCUGGGCAACAUUCCGAGAGGACCGUCCCCUCGGUAAUGGCGAAUGGGCCCCA, the self-cleavage is reported as 0.464.
GGCCGGCAUGGUCCCAGCCUCCUCGCUGGCGCCGGCUGGGCAACAUUCCGAGAGGACCGUCCCCUCGGUAAUGGCGAAUGGGUCCCA showed a self-cleavage of 0.521.
For GGCCGGCAUGGUCCCAGCCUCCUCGCUGGCGCCGGCUGGGCAACAUUCCGAGAGGACUGUCCCCUCGGUAAUGGCGAAUGGGACCCA, the self-cleavage was 0.987.
Work on GGCCGGCAUGGUCCCAGCCUCCUCGCUGGCGCCGGCUGGGCAACAUUCCGAGAGGACAGUCCCCUCGGUAAUGGCGAAUGGGACCCA yielded a self-cleavage of 0.962.
GGCCGGCAUGGUCCCAGCCUCCUCGCUGGCGCCGGCUGGGCAACAUUCCGAUGGGACCGUCCCCUCGGUAAUGGCGAAUUGGACCCA gave a self-cleavage of 0.312.
GGCCGGCAUGGUCCCAGCCUCCUCGCUGGCGCCGGCUGGGCAACAUUCCGAGAGGACCGUCCCCUCGGCAAUGGCGAAUGGGACCCA gave a self-cleavage of 1.11.
Variant GGCCGGCAUGGUCCCAGCCUCCUCGCUGGCGCCGGCUGGGCAACAUUCCGAGAGGACCGUCCCCUCGGAAAUGGCGAAUGGGACCCA has a self-cleavage of 1.03.
Work on GGCCGGCAUGGUCCCAGCCUCCUCGCUGGCGCCGGCUGGGCAACAUUCCGAGAGGACCGUCCCCUCGGGAAUGGCGAAUGGGACCCA yielded a self-cleavage of 1.04.
For GGCCGGCAUGGUCCCAGCCUCCUCGCUGGCGCCGGCUGGGCAACAUUCCGAGAGGACCGUCCCCUCGGUAAUGGGGAAUGGGACCCA, the self-cleavage was 0.156.
GGCCGGCAUGGUCCCAGCCUCCUCGCUGGCGCCGGCUGGGCAACAUUCCGAGAGGACCGUCCGCUCGGUAAUGGCGAAUGGGACCCA showed a self-cleavage of 1.01.
GGCCGGCAUGGUCCCAGCCUCCUCGCUGGCGCCGGCUGGGCAACAUUCCGAGAGGACCGUCCACUCGGUAAUGGCGAAUGGGACCCA showed a self-cleavage of 0.819.
Variant GGCCGGCAUGGUCCCAGCCUCCUCGCUGGCGCCGGCUGGGCAACAUUCCGAGAGGACCGUCCCCUCUGUAAUGGCGAAUGGGACCCA has a self-cleavage of 0.884.
For GGCCGGCAUGGUCCCAGCCUCCUCGCUGGCGCCGGCUGGGCAACAUUCCGAGAGGACCGUCCCUUCGGUAAUGGCGAAUGGGACCCA, the self-cleavage was 0.968.
In the case of GGCCGGCAUGGUCCCAGCCUCCUCGCUGGCGCCGGCUGGGCAACAUUCCGAGAGGACCGUCCCAUCGGUAAUGGCGAAUGGGACCCA, the self-cleavage is reported as 0.639.
GGCCGGCAUGGUCCCAGCCUCCUCGCUGGCGCCGGCUGGGCAACAUUCCGAGAGGACCGUCCCCUCGGUAAUGGCGAAUGAGACCCA showed a self-cleavage of 0.456.
With GGCCGGCAUGGUCCCAGCCUCCUCGCUGGCGCCGGCUGGGCAACAUUCCGAGAGGACCGUCCCCUCGGUAAUGGCGAAUGUGACCCA the self-cleavage was 0.272.
With GGCCGGCAUGGUCCCAGCCUCCUCGCUGGCGCCGGCUGGGCAACAUUCCGAUGGGACCGUCCCCUCGGUAAUGGCGAAUGCGACCCA the self-cleavage was 0.298.
With GGCCGGCAUGGUCCCAGCCUCCUCGCUGGCGCCGGCUGGGCAACAUUCCGAGAGGACCGUCCCCUCGGUAAUGGCGAAUGGGACCAA the self-cleavage was 1.16.
For GGCCGGCAUGGUCCCAGCCUCCUCGCUGGCGCCGGCUGGGCAACAUUCCGAGAGGACCGUCCCCUCGGUAAUGGCGAAUGGGACCGA, the self-cleavage was 1.1.
With GGCCGGCAUGGUCCCAGCCUCCUCGCUGGCGCCGGCUGGGCAACAUUCCGAUGGGACCGUCCCCUCGGUAAUGGCGAAAGGGACCCA the self-cleavage was 0.759.
Variant GGCCGGCAUGGUCCCAGCCUCCUCGCUGGCGCCGGCUGGGCAACAUUCCGAGAGGACCGUCCCCUCGGUAAUGGCGAACGGGACCCA has a self-cleavage of 0.376.
GGCCGGCAUGGUCCCAGCCUCCUCGCUGGCGCCGGCUGGGCAACAUUCCGAGCGGACCGUCCCCUCGGUGAUGGCGAAUGGGACCCA gave a self-cleavage of 0.962.
In the case of GGCCGGCAUGGUCCCAGCCUCCUCGCUGGCGCCGGCUGGGCAACAUUCCGAGCGGACCGUCCCCUCGGUCAUGGCGAAUGGGACCCA, the self-cleavage is reported as 0.653.
With GGCCGGCAUGGUCCCAGCCUCCUCGCUGGCGCCGGCUGGGCAACAUUCCGAGCGGACCGUCCCCUCGGUUAUGGCGAAUGGGACCCA the self-cleavage was 0.988.
For GGCCGGCAUGGUCCCAGCCUCCUCGCUGGCGCCGGCUGGGCAACAUUCCGAGAGGACCGUCCCCCCGGUAAUGGCGAAUGGGACCCA, the self-cleavage was 0.815.
GGCCGGCAUGGUCCCAGCCUCCUCGCUGGCGCCGGCUGGGCAACAUUCCGAGAGGACCGUCUCCUCGGUAAUGGCGAAUGGGACCCA showed a self-cleavage of 0.926.
GGCCGGCAUGGUCCCAGCCUCCUCGCUGGCGCCGGCUGGGCAACAUUCCGAGACGACCGUCCCCUCGGUAAUGGCGAAUGGGACCCA gave a self-cleavage of 0.857.
GGCCGGCAUGGUCCCAGCCUCCUCGCUGGCGCCGGCUGGGCAACAUUCCGAGAGUACCGUCCCCUCGGUAAUGGCGAAUGGGACCCA gave a self-cleavage of 1.17.
